Assay results as given in patent publication US5451369A, “Bacteriocidal surfaces and articles with attached bacteriocin” (The State of Oregon Acting By and Through The State Board …, priority 1993, dated 1995).
Where no end group is shown, it is not given here.

Experiments:
[1] = tested on: gram-positive spoilage and pathogenic bacteria; conditions: various foods (dairy, meats and others); cited from earlier work
[2] = Nisin adsorption to silicon wafers measured by ellipsometry (hydrophobic, silanized surface); assay type: physicochemical
Source text: (§1) This example is an investigation of the binding ability of nisin on hydrophilic surfaces and on such surfaces made strongly hydrophobic by silanization. As representative hydrophilic surfaces, we selected monocrystalline silicon because this material is homogeneous, has substantially no pores or surface cavities, and has optical properties amenable to analysis using a laser beam.
(§2) Optically flat, monocrystalline silicon wafers (Wacker Siltronic Corp., Portland, Oreg.) having 1-0-0 orientation and a resistivity of 0.1 to 0.16 ohm.cm were cut into 1×2 cm wafers using a tungsten knife. The wafer surfaces were polished to a mirror finish.
A second quantity of wafers was made hydrophobic by silanization with dichlorodimethylsilane according to Jonsson et al., J. Colloid Interface Sci. 90:148-163 (1982) .
Hydrophilicity and hydrophobicity were confirmed by contact angle analysis according to McGuire, J. Food Eng. 12:239-247 (1990), incorporated herein by reference. In brief, hydrophobicity was determined by measuring the nondispersive component of the work Wa^p required to remove water from a surface, wherein Wa^p is defined according to equation (1) in said McGuire reference. This value was gained using contact-angle methods, and all food-contact surfaces can be analyzed in this way. […] A low value indicates strong hydrophobicity and a high value indicates strong hydrophilicity. […]

[3] = Nisin adsorption to silicon wafers measured by ellipsometry (hydrophilic surface); assay type: physicochemical; conditions: hydrophilic silicon wafer; nisin concentration range 0.1 to 1.0 mg/mL
Source text: as §1, §2
A first quantity of wafers was made hydrophilic by oxidation wherein the wafers were immersed in a mixture of NH4 OH:H2 O2 :H2 O (1:1:5) at 80° C. for 15 minutes. The wafers were then rinsed using distilled deionized water followed by an immersion in HCl:H2 O2 :H2 O (1:1:5) for 15 minutes at 80° C. […]
Hydrophilicity and hydrophobicity were confirmed by contact angle analysis according to McGuire, J. Food Eng. […] In brief, hydrophobicity was determined by measuring the nondispersive component of the work Wa^p required to remove water from a surface, wherein Wa^p is defined according to equation (1) in said McGuire reference. This value was gained using contact-angle methods, and all food-contact surfaces can be analyzed in this way. […]

[4] = tested on: Pediococcus pentosaceus strain FBB61-2; experiment: Bioassay of adsorbed nisin: wafers placed face down on seeded MRS agar, inhibition zones; assay type: cell-based; conditions: hydrophilic wafers with nisin adsorbed from 0.1 to 1.0 mg/mL solutions, 4° C. 24 hours then 37° C.
Method: The activity of adsorbed nisin was evaluated by a bioassay performed as follows: Petri dishes (150×25 mm) containing MRS agar (Difco, Detroit, Mich.) were seeded with 0.1% v/v of a standardized overnight culture of Pediococcus pentosaceus strain FBB61-2 bacteria. Silicon wafers having hydrophilic surfaces were prepared as described above. Such wafers were prepared with and without adsorbed nisin. Wafers were placed face down directly onto the seeded agar surfaces. The Petri dishes were then incubated at 4° C. for 24 hours, then incubated at 37° C.
Referring to FIG. 2, the silicon wafers numbered 1-10 were subjected to adsorption of nisin from 0.1 to 1.0 mg/mL nisin solutions, respectively (in 0.1 mg/mL increments). […] Qualitatively, it can be seen in FIG. 2 that the amount of nisin antimicrobial activity associated with the nisin-coated wafers (as indicated by the diameters of the respective inhibition zones) corresponds to the mass of nisin that actually adsorbed to the respective wafer as shown in FIG. 1; i.e., the smallest inhibition zone corresponded with the smallest adsorbed mass of nisin.

[5] = tested on: Pediococcus pentosaceus strain FBB61-2; experiment: Desorption of nisin from wafers by rinsing, followed by agar-well diffusion assay; assay type: cell-based
Method: Nisin was adsorbed to hydrophilic and hydrophobic silicon wafers as described in example 1. We then attempted to desorb nisin from the wafers by placing 50 μL of 0.01M phosphate buffer (pH 6.0) containing 1% polyoxyethylene sorbitan (Tween 80) on each wafer and "agitating" the droplet over the entire wafer surface using a pipette tip. The 50 μL droplet was then transferred to 5.6-mm diameter wells that had been made in seeded agar. As controls, we also attempted to desorb nisin from nisin-coated wafers using the phosphate buffer without Tween 80.
In FIG. 3, the activity of desorbed nisin (from hydrophilic surfaces) is seen as inhibition zones in the agar-well diffusion assay. The amount of recovered nisin roughly corresponded to the relative mass of nisin initially adsorbed to the wafers, similar to the previously described relationships shown in FIGS. 1 and 2. The only exception was the inhibition zone of well 10, wherein the unusually small diameter of the inhibition zone resulted from most of the desorbed nisin being lost during manipulations.
It should be noted that the amount of nisin that became adsorbed onto the wafer surfaces was an amount sufficient for inhibition of susceptible bacteria. Commonly, about 100 Units/g are used in food products to prevent the outgrowth of gram-positive bacterial spores and vegetative cells. […]

[6] = high-potency grade from Aplin and Barrett Ltd.; cited from earlier work
[7] = cited from earlier work

Substance	control of gram-positive bacteria in foods [1]	reversal of adsorption in more dilute solution ([2]; hydrophilic and hydrophobic wafers, 12-hour post-adsorption exposure to buffer (FIG. 1 circles))	upper limit (plateau) of adsorbed mass of nisin ([2]; hydrophobic (silanized) silicon wafer, pH 6.0 phosphate buffer, 8 hours contact, consistent with a monolayer)	adsorption plateau on hydrophilic surface [3]	diameter of inhibition zone around nisin-containing wafers [4]	desorption by rinsing with phosphate buffer without Tween 80 ([5]; 0.01M phosphate buffer pH 6.0, no Tween 80)	desorption by phosphate buffer containing Tween 80 ([5]; 0.01M phosphate buffer pH 6.0 with 1% Tween 80)	nominal nisin activity [6]	period of retained bacteriocidal activity ([7]; ambient temperatures (0°-40° C.))	stability of activity at pH 11 ([7]; pH 11)	potency of purified dry powder on storage ([7]; refrigeration storage)
Pediocin AcH (KYYGNGVTCGKHSCSVDWGKATTCIINNGAMAWATGGHQGNHKC; ends and bridges not checked; cysteine pairing not given here; UniProt P29430 19-62, looked up) [wide-spectrum bacteriocin produced by lactic-acid bacteria, first identified in 1984]	efficacious in controlling a wide range of spoilage and pathogenic gram-positive bacteria										
Pediocin PA1 (KYYGNGVTCGKHSCSVDWGKATTCIINNGAMAWATGGHQGNHKC; ends and bridges not checked; cysteine pairing not given here; UniProt P29430 19-62, looked up) [wide-spectrum bacteriocin produced by lactic-acid bacteria]	found to control gram-positive bacterial populations										
nisin (ITSISLCTPGCKTGALMGCNMKTATCHCSIHVSK; ends and bridges not checked; also: five thioether crosslinks (ring bridges), places not given here; UniProt P13068 24-57, looked up)	effective in preserving these foods	does not appear to reverse	about 0.36 mg/cm^2	did not attain a plateau value	generally proportional to the log10 concentration of the nisin solution	resistant to desorption	able to desorb nisin	45.5×10^6 Units/g	16-24 months	can be lost rapidly	retains its potency indefinitely
